According to patent publication US20110020833A1:
Where no end group is shown, it is not given here.

Molecular target: BSA+oligo-Lys conjugate (oligo-Lys peptide K14C coupled to bovine serum albumin) (bovine) (UniProt P02769)
Test: MACN-labeled peptide in plasma matrix, 30 min in tubes coated with oligo-Lys-BSA to which the oligo-Asp-anti-PCT antibody was bonded; luminometer

Sequence of UniProt P02769 (P02769 25-607, stated change not applied): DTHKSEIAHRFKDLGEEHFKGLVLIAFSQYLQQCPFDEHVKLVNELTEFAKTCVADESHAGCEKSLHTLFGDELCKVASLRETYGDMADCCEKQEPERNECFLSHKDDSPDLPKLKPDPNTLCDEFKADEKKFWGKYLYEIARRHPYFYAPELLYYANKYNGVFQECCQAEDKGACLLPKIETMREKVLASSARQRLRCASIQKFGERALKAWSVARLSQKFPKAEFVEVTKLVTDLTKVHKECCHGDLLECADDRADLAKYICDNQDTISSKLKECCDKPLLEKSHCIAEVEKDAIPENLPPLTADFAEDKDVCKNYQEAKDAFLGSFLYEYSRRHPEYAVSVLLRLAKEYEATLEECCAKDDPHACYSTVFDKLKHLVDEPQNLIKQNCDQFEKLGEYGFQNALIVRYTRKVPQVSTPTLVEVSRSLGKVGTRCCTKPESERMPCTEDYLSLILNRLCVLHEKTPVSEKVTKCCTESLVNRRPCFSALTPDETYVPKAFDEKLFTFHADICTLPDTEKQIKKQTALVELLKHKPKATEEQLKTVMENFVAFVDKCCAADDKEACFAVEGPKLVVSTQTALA

Row | percentage of non-specific binding relative to the total activity [%] | Binder
1 | 2.9 | ELRMSSSYPTGLADVKAGPAQTLIRPQDMKGASRSPEDSSPDAARIRV (also: MACN acridinium label, site not given here) [MACN-labeled Peptide 45-92 (derived from pro-adrenomedullin)]
2 | 3.1 | PEVPPWTGEVSPAQRDGGALGGGGRGPWDSSDRSALLKSKL (also: MACN acridinium label, site not given here) [MACN-labeled peptide PPL41 (derived from NT-proANP)]
3 | 6.5 | ATQLDGPAGALLLRLVQLAGAPEPFEPAQPDAY (also: MACN acridinium label, site not given here) [MACN-labeled peptide PAY33 (derived from copeptin)]
4 | 3 | SSEEHLRQTRSETMRNSVKSSFHDPKLKGKPSRERYVTHNRAHW (also: MACN acridinium label, site not given here) [MACN-labeled peptide PSW44 (derived from proEndothelin)]
